Reference: patent US20230416343A1
Where two headings read alike, the source gives them in different places.

B1: antibody S1D2 (antibody, V domains shown)
VH: EVQLVESGGGLIQPGGSLRLSCAASGFTVSSNYMSWVRQAPGKGLEWVSIIYPGGSTNYADSVKGRFTISRDNSRNTLYLQMNSLRAEDTAVYYCARELGYYGMDVWGQGTTVTVSS
VL: DIQMTQSPSSVSASVGDRVTITCRASQGISTWLVWYQQKPGKAPNLLIYGASSLQSGVPSRFSGSGSGTDFTLTISSLQPEDFATYYCQQANSFPYTFGQGTKLEIK
B2: S1D2LALA antibody (STI-1499) (antibody, V domains shown)
VH: EVQLVESGGGLIQPGGSLRLSCAASGFTVSSNYMSWVRQAPGKGLEWVSIIYPGGSTNYADSVKGRFTISRDNSRNTLYLQMNSLRAEDTAVYYCARELGYYGMDVWGQGTTVTVSS
VL: DIQMTQSPSSVSASVGDRVTITCRASQGISTWLVWYQQKPGKAPNLLIYGASSLQSGVPSRFSGSGSGTDFTLTISSLQPEDFATYYCQQANSFPYTFGQGTKLEIK

Assays:
Settings in all cases: remark: other sources report otherwise
[1] = molecular target: T1, Recombinant SARS-CoV2 RBD having a carboxy terminal his tag (SARS-CoV-2), P0DTC2
[2] = molecular target: T1, Recombinant SARS-CoV2 RBD having a …; remark: listed apart in the source
[3] = molecular target: SARS-CoV-2 variant spike protein deletion mutant del 243-244 on HEK293 cells (SARS-CoV-2), P0DTC2
[4] = molecular target: T2, SARS-CoV-2 D614G mutant spike protein expressed on HEK293 cells (SARS-CoV-2), P0DTC2
[5] = molecular target: SARS-CoV-2 variant spike protein F490S on HEK293 cells (SARS-CoV-2), P0DTC2
[6] = molecular target: SARS-CoV-2 variant spike protein S494P on HEK293 cells (SARS-CoV-2), P0DTC2
[7] = molecular target: SARS-CoV-2 variant spike protein E484K on HEK293 cells (SARS-CoV-2), P0DTC2
[8] = molecular target: T3, SARS-CoV-2 spike protein expressed on HEK293 cells (SARS-CoV-2), P0DTC2; test: flow cytometry on HEK293 cells expressing the spike; table 'spike'
[9] = molecular target: T2, SARS-CoV-2 D614G mutant spike protein …; remark: listed apart in the source
[10] = molecular target: T3, SARS-CoV-2 spike protein expressed on …

Binder | Kd [1] [nM] | Kd [2] [nM] | EC50 [3] [µg/mL] | EC50 [4] [µg/mL] | EC50 [5] [µg/mL] | EC50 [6] [µg/mL] | EC50 [7] [µg/mL] | Maxi % [8] [%] | EC50 [9] [µg/mL] | Maxi % [9] [%] | EC50 [10] [µg/mL]
B1 | 46 | 46.2 | – | – | – | – | – | – | – | – | –
B2 | – | – | 180 | 70 | 38 | 194 | 140 | 100 | 0.13 | 100 | 0.1
